Results reported in patent publication US7452534.

B1: CE9.1, monkey/human chimeric anti-CD4 monoclonal antibody (cynomolgus variable domains, human gamma 1 / lambda constant regions) (antibody)
heavy: not shown
light: SYELSQPRSVSVSPGQTAGFTCGGDNVGRKSVQWYQQKPPQAPVLVIYADSERPSGIPARFSGSNSGNTATLTISGVEAGDEADYYCQVWDSTADHWVFGGGTRLTVLGQPKAAPSVTLFPPSSEELQANKATLVCLISDFYPGAVTVAWKADSSPVKAGVETTTPSKQSNNKYAASSYLSLTPEQWKSHRSYSCQVTHEGSTVEKTVAPTECS
notes: domain: gamma 1 constant region; the entries may be DNA and may hold a leader; also called mAb CE9.1; monkey/human recombinant antibody (ATCC No. 69030)
B2: CE9γ4E, chimeric anti-CD4 antibody with human gamma 4 constant domain carrying the E modification (L236E) (antibody, human IgG4, lambda)
heavy: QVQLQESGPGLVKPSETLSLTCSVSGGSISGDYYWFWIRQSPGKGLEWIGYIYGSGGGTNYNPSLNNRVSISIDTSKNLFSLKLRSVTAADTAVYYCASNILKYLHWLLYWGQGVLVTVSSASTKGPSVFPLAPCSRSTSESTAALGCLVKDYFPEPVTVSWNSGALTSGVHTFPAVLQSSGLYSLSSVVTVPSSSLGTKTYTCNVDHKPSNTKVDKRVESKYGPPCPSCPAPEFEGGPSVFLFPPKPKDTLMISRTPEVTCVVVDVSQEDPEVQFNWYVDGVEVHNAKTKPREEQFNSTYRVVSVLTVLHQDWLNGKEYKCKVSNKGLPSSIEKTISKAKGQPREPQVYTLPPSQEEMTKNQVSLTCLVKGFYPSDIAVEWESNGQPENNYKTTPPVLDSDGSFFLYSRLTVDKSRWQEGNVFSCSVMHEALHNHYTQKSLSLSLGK
light: B1 light
notes: IgG4 (L236E; 248 Kabat numbering) lambda; also called CE9γ4E(G4E); CE9γE
B3: CE9γ4, chimeric anti-CD4 antibody with human gamma 4 constant domain (antibody, human IgG4, lambda)
heavy: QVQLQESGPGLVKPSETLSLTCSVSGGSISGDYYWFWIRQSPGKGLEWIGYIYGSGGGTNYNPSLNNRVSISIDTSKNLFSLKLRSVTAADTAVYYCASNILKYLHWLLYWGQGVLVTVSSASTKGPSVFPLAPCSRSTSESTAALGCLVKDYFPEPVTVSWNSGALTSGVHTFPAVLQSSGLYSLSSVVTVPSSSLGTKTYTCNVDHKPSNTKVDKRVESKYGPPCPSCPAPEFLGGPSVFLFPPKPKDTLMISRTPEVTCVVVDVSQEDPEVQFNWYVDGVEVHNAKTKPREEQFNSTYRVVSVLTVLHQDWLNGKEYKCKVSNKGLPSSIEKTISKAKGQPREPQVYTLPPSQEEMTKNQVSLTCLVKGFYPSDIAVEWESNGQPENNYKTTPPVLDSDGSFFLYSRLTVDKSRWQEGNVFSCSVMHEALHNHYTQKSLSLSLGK
light: B1 light
notes: IgG4 lambda; also called CE9γ4(G4); anti-CD4 (G4, L, Oz-)
B4: CE9γ4PE, chimeric anti-CD4 antibody with human gamma 4 constant domain carrying the P and E modifications (S229P, L236E) (antibody, human IgG4 S228P, lambda)
heavy: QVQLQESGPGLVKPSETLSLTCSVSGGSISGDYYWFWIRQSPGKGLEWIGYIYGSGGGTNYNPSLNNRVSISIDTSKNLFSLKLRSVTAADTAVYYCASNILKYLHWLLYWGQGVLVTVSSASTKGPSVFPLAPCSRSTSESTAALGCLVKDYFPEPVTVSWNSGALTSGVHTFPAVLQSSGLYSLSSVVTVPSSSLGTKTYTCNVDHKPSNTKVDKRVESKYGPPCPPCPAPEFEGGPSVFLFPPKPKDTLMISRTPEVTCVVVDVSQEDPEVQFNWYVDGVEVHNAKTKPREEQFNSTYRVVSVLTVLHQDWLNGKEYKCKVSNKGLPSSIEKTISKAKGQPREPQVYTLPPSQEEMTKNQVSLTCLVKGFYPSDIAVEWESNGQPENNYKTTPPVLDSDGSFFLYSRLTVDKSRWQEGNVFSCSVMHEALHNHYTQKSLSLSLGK
light: B1 light
notes: IgG4 (S229P, L236E; 241 and 248 Kabat numbering) lambda, expressed in CHO; also called CE97PE(G4PE); CE9-4PE
B5: CE9γ4λK, chimeric anti-CD4 antibody with human gamma 4 heavy chain constant domain and human kappa light chain constant region (antibody)
heavy: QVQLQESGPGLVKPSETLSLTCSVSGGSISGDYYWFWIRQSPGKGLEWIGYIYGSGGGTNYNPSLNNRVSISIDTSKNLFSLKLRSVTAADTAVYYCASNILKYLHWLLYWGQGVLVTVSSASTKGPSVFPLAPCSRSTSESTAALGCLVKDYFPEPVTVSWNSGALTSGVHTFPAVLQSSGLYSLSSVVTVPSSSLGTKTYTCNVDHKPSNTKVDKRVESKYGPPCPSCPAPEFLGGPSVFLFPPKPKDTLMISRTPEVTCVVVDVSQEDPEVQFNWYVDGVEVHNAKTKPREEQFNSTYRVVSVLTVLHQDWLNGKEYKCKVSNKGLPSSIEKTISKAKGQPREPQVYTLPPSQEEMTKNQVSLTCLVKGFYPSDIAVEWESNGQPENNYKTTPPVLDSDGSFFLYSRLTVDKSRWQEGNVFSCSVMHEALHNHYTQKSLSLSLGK
light: SYELSQPRSVSVSPGQTAGFTCGGDNVGRKSVQWYQQKPPQAPVLVIYADSERPSGIPARFSGSNSGNTATLTISGVEAGDEADYYCQVWDSTADHWVFGGGTRLTVLG
notes: also called CE9γ4XK; CE9γ4K

How the values were obtained:
[1] = molecular target: T1, recombinant human soluble CD4 (human, UniProt P01730 26-394, limits assumed); experiment: SPR (BIAcore) saturation binding of soluble CD4 to immobilized mAb
T1 construct: Soluble form; also called sCD4
Method: (§1) The stoichiometry of binding of soluble CD4 to immobilized mAbs can be determined by saturation binding experiments on BIAcore (Pharmacia). Data for the association and dissociation phases of the SPR progress (FIG. 19) were analyzed directly using the integrated form of the rate equations as described in O'Shannessey et al., Anal. Biochem., 212: 467-468 (1993). […] Thus, the stoichiometry of CD4 binding was the same for all mAbs and close to the theoretical value of 2.0.

human CD4 on cells [2] = molecular target: T2, human CD4 on cells (human, UniProt P01730 26-458); experiment: cell-based or functional assay
[3] = molecular target: T1, recombinant human soluble CD4; experiment: SPR
human CD4 on cells [4] = molecular target: T2, human CD4 on cells; experiment: cell-based or functional assay; remark: listed apart in the source
[5] = molecular target: T1, recombinant human soluble CD4; experiment: SPR (BIAcore), soluble CD4 on immobilized mAb, 25 C
Method: as §1

[6] = molecular target: T3, chimpanzee CD4 on lymphocytes (chimpanzee, UniProt P16004 26-458); experiment: flow cytometry of blood of chimpanzees dosed at 1.5 mg/kg
T3 construct: whole, on cells
T3 sequence (P16004 26-458): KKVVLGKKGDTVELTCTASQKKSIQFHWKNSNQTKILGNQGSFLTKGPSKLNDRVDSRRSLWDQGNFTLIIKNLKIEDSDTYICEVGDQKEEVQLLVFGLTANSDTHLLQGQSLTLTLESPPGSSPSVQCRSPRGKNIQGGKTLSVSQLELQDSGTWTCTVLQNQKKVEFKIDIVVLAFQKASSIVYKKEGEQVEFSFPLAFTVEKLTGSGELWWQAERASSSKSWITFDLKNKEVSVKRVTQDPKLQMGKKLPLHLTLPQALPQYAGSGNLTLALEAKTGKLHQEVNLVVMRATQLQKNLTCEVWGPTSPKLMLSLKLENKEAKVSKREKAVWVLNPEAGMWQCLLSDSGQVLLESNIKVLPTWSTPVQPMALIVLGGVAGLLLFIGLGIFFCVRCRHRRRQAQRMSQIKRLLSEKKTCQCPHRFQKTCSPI
Method: Six chimpanzees were examined for depletion of CD4^+ T cells and/or modulation of the CD4 receptor from the cell surface after infusions of increasing doses of antibody CE9γ4PE, up to 15 mg/kg. Peripheral blood samples were taken from each chimpanzee three weeks and two weeks prior to the start of the study to establish baseline levels for CD4^+ T cells. In addition to CD4^+ cells, CD3^+ and CD8^+ cell levels were also measured by flow cytometry. […] By subtraction of CD8^+ counts from total CD3^+ counts a theoretical value for the number of CD4^+ T cells could be calculated. By comparing this value with the CD4^+ cells measured suing OKT4, CD4 receptor modulation could be distinguished from CD4^+ cell depletion.

human C1q = molecular target: T4, human C1q (human, UniProt P02745 23-245; P02746 28-253; P02747 29-245); experiment: C1q binding (summary table of effector functions)
T4 construct: also called Clq
T4 sequence (P02745 23-245 limits assumed, chain 1 of 3): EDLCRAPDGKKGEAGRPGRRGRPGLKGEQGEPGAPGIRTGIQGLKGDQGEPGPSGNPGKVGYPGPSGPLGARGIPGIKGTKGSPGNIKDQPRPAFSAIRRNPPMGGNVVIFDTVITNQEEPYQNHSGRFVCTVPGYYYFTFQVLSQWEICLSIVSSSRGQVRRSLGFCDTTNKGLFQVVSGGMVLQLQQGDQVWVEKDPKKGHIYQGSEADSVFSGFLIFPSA
T4 sequence (P02746 28-253 limits assumed, chain 2 of 3): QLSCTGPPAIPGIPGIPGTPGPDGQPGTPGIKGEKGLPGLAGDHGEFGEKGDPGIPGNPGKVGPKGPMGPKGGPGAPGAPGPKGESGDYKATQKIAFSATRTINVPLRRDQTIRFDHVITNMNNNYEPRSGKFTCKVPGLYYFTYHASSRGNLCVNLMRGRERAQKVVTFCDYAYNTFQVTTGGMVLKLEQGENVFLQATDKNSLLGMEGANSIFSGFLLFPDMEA
T4 sequence (P02747 29-245 limits assumed, chain 3 of 3): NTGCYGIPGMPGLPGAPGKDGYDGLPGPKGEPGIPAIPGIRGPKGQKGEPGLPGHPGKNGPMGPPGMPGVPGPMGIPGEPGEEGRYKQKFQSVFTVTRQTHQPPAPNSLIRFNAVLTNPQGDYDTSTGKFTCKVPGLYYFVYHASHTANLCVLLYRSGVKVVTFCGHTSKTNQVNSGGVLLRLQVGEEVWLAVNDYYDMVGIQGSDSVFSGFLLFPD

Binder	BIAcore Stoichiometry [1] [moles CD4/mole mAb]	inhibition of human MLR (proliferation and IL-2 production), IC50 (human CD4 on cells [2]) [mg/L]	Kd [3] [nM]	MLR IL-2 Production (IC50) (human CD4 on cells [4]) [mg/L]	MLR Proliferation (IC50) (human CD4 on cells [4]) [mg/L]	Kd [5] [nM]	binding result [6]	binding result (human C1q)
B1	1.56	0.01 to 0.03	1	0.005	0.02	0.99		
B2	1.72			0.01	0.02	1.43		
B3	1.61			0.005	0.02	1.34		
B4					0.02	1.09	binds	no binding
B5	1.67					1.08		
